B1: library; numbered along this chain (parent)
chain: MRKPRAAVGSGHRKQAASQEGRQKHAKNNSQAKPSACDGLARQPEEVVLQASVSSYHLFRDVAEVTAFRGSLLSWYDQEKRDLPWRRRAEDEMDLDRRAYAVWVSEVMLQQTQVATVINYYTGWMQKWPTLQDLASASLEEVNQLWAGLGYYSRGRRLQEGARKVVEELGGHMPRTAETLQQLLPGVGRYTAGAIASIAFGQATGVVDGNVARVLCRVRAIGADPSSTLVSQQLWGLAQQLVDPARPGDFNQAAMELGATVCTPQRPLCSQCPVESLCRARQRVEQEQLLASGSLSGSPDVEECAPNTGQCHLCLPPSEPWDQTLGVVNFPRKASRKPPREESSATCVLEQPGALGAQILLVQRPNSGLLAGLWEFPSVTWEPSEQLQRKALLQELQRWAGPLPATHLRHLGEVVHTFSHIKLTYQVYGLALEGQTPVTTVPPGARWLTQEEFHTAAVSTAMKKVFRVYQGQQPGTCMGSKRSQVSSPCSRKKPRMGQQVLDNFFRSHISTDAHSLNSAAQ

Variants of: B1
Assay: 8OG:A repair function score (normalized; synonymous = 0, nonsense = -1) (normalized log-likelihood score); higher = more repair activity (WT-like)
Conditions: with 8OG:A DNA repair reporter (GFP) in HEK-293 MUTYH KO cells
Method in brief: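 With 10 pg/ml doxycycline, MUTYH knockout HEK-293 cells carrying lentiviral MUTYH cDNA NNN codon-scan libraries were co-transfected with mCherry and an 8OG:A GFP repair reporter. Viable mCherry+ cells were sorted into GFP+ (repair) and GFP− bins at 72 h, three replicates per tile, and tile amplicons were sequenced. Per-tile Rosace fitness scores were then normalized into a repair function score anchored on synonymous and nonsense distributions. Medians were fixed at 0 for synonymous and -1 for nonsense, excluding variants under 300 counts per million at the start.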

Point of comparison: H420I, “8OG:A repair function score” value -0.666. Against it:
- E382K — higher, -0.213
- E382V — higher, 0.0267
- E382Y — higher, 0.217
- G171C — higher, -0.239
- G171Y — higher, -0.628
- A254P — lower, -0.979
- A254N — higher, -0.427
- A254I — higher, 0.133
- A67T — higher, 0.00198
- K127F — higher, -0.207
- K127A — higher, -0.303
- S55Y — higher, 0.000496
- S55H — higher, -0.00673
- S55C — higher, -0.043
- L184I — higher, -0.0822
- R336D — higher, -0.271
- R189G — higher, -0.299
- V48E — higher, -0.122
- V48L — higher, -0.0249
- V48H — higher, 0.0666
- I118T — higher, -0.0724
- L40T — higher, 0.087
- S294P — higher, -0.0152
- S294Q — higher, -0.0283
- P339T — higher, -0.0529
- F453E — lower, -1.1
- F453Q — lower, -0.887
- S518V — higher, -0.01
- S136W — higher, -0.154
- G471P — higher, -0.0663
- A405S — higher, 0.0326
- L131S — higher, -0.315
- E64T — higher, 0.00694
- R2L — higher, -0.084
- V441I — higher, -0.0341
- Q233S — higher, 0.0726
- G297K — higher, 0.0192
- L387E — higher, -0.0756
- K464N — higher, -0.146
- A101P — higher, -0.398
- Q265D — higher, -0.156
- R246N — higher, -0.471
- A457K — lower, -0.815
- R467W — higher, -0.034
- E375G — higher, -0.0637
- E375N — higher, -0.407
- E375L — lower, -0.83
- E375Q — higher, 0.0245
- R156I — higher, -0.152
- F505A — higher, 0.00138
- L325E — higher, -0.08
- L325Y — higher, -0.173
- G368R — higher, -0.193
- L277S — higher, -0.022
- V465H — lower, -0.79
- V465W — lower, -1.07
- H508F — higher, -0.00232
- H508G — higher, -0.00256
- E413W — higher, -0.379
- W235N — higher, -0.368
- A41V — higher, -0.0754
- A41Y — higher, -0.107
- E302A — higher, -0.273
- G123Y — higher, -0.191
- P383N — higher, -0.294
- R69Q — higher, -0.519
- P377Q — lower, -0.969
- P377C — higher, -0.633
- R97I — higher, 0.00215
- Q181C — higher, -0.121
- A220L — lower, -0.81
- A220R — lower, -0.747
- L180Y — higher, -0.571
- L180A — higher, -0.223
- Y100E — lower, -1.42
- Y100N — lower, -1.17
- Y100S — lower, -1.56
- H416W — higher, -0.209
- H416K — lower, -0.715
- L411F — higher, -0.151
- A51D — higher, 0.029
- V468Q — higher, -0.0492

Source: the supplement of paper PMC11908140
